Positions count from the first letter of the chain named. In names and notes the source's numbering stands.
B1: rat insulin degradation enzyme (IDE) variant A890V (valine for alanine at amino acid 890) (enzyme)
chain: MRNGLVWLLHPALPSTLHSILGARPPPVKRLCGFPKQIYSTMNNPAIQRIEDHIVKSPEDKREYRGLELANGIKVLLISDPTTDKSSAALDVHIGSLSDPPNIPGLSHFCEHMLFLGTKKYPKENEYSQFLSEHAGSSNAFTSGEHTNYYFDVSHEHLEGALDRFAQFFLCPLFDASCKDREVNAVDSEHEKNVMNDAWRLFQLEKATGNPKHPFSKFGTGNKYTLETRPNQEGIDVREELLKFHSTYYSSNLMAICVLGRESLDDLTNLVVKLFSEVENKNVPLPEFPEHPFQEEHLKQLYKIVPIKDIRNLYVTFPIPDLQQYYKSNPGHYLGHLIGHEGPGSLLSELKSKGWVNTLVGGQKEGARGFMFFIINVDLTEEGLLHVEDIILHMFQYIQKLRAEGPQEWVFQECKDLNAVAFRFKDKERPRGYTSKIAGKLHYYPLNGVLTAEYLLEEFRPDLIDMVLDKLRPENVRVAIVSKSFEGKTDRTEQWYGTQYKQEAIPEDVIQKWQNADLNGKFKLPTKNEFIPTNFEILALEKDATPYPALIKDTAMSKLWFKQDDKFFLPKACLNFEFFSPFAYVDPLHCNMAYLYLELLKDSLNEYAYAAELAGLSYDLQNTIYGMYLSVKGYNDKQPILLKKITEKMATFEIDKKRFEIIKEAYMRSLNNFRAEQPHQHAMYYLRLLMTEVAWTKDELKEALDDVTLPRLKAFIPQLLSRLHIEALLHGNITKQAALGVMQMVEDTLIEHAHTKPLLPSQLVRYREVQLPDRGWFVYQRRNEVHNNCGIEIYYQTDMQSTSENMFLELFCQIISEPCFNTLRTKEQLGYIVFSGPRRANGIQGLRFIIQSEKPPHYLESRVEAFLITMEKAIEDMTEEAFQKHIQALVIRRLDKPKKLSAECAKYWGEIISQQYNYDRDNIEVAYLKTLSKDDIIKFYKEMLAVDAPRRHKVSVHVLAREMDSCPVVGEFPSQNDINLSEAPPLPQPEVIHNMTEFKRGLPLFPLVKPHINFMAAKL
B2: rat insulin degradation enzyme (IDE), GK allele containing both H18R and A890V (enzyme)
chain: B1 chain with H18R
B3: rat insulin degradation enzyme (IDE) variant H18R (arginine for histidine at amino acid 18) (enzyme)
chain: B1 chain with H18R, V890A

Target: insulin (125I-insulin mixed with unlabeled insulin)
Assay: cell-based or functional assay

Row | Binder | insulin degrading activity in intact COS-1 cells, percentage of wild type activity
1 | B1 | 95 % of wild type activity
2 | B2 | 69 % of wild type activity
3 | B3 | 89 % of wild type activity
